US20220315908A1, “NOVEL GARDNERELLA ENDOLYSINS AND USES THEREOF” (priority 2019, published 2022)

Legend:
[1] = test system: G. swidsinskii strain Gv_23; assay: Quantitative reduction in viable CFU assay in bacterial suspension; assay type: cell-based, Gardnerella swidsinskii; conditions: 5 hours, pH 5.0, anaerobic, 10 ul endolysin (0.2 mg/ml where possible) + 90 ul 5e7 CFU/ml, average of triplicate
Experimental: The lysis activity on the four main species of Gardnerella of 91 constructs (natural and domain-swapped endolysins) was quantitatively assessed using the method described in Reference Example 2. Briefly, 90 ul 5e7 CFU/ml of the indicated strain were incubated for 5 hours at pH 5.0 under anaerobic conditions with 10 ul endolysin (concentration adjusted to 0.2 mg/ml where possible, see Table 4).
The results are shown in FIGS. 8A to 8D together with Tables 5A to 5C. In FIGS. 8A to 8D, the logarithmic Y axis depicts the count of surviving cells. The dotted line indicates the limit of detection (LOD) given by plating of 2 ul of the reaction mix (500 CFU/ml). Each combination of the natural 10 H-domains and the natural 9 B-regions was assessed, including the natural endolysins (H1B1, H2B2, H3B3, etc.), plus H6B6. […] The activity of each construct was measured on each of the 4 main Gardnerella species G. vaginalis sensu stricto, G. leopoldii, G. piotii, and G. swidsinkii. All conditions have been measured in triplicate. The survival after 5 hours incubation at pH 5.0 under anaerobic conditions with endolysins vs. buffer was measured by quantitative plating. The values indicate the log 10 of the ratio of surviving CFU for treated vs. untreated cells. The average of the triplicate measurements is used. In tables 5A and 5B, high negative log 10 values, e.g. −6.7, −5.5, −4.8 etc. are associated with high enzymatic activity, while log 10 values closer to zero or even positive log 10 values are associated with low or no enzymatic activity. […] Inversely, a reduction value of −3.7 means a 10^3.7-fold (=5012-fold) reduction of viable CFU in treated sample vs. untreated control.
(§1) Gardnerella cells were recovered from cryo stock by plating on Chocolate Agar plates (Beckton Dickinson) and incubating for 48 h at 37° C. under anaerobic conditions. For Lactobacilli, BD Schaedler/5% sheep blood agar plates were used instead. Colonies were scraped from the plate, resuspended in Hardy Broth or NYC-III-HS-5.0 at the pH as indicated, and the suspension adjusted to OD (610 or 620 nm as indicated) 0.1. It has to be noted that two Tecan Microplate readers, having respectively a 610 nm or 620 nm filter, have been used interchangeably in the experiments. Although it doesn't make any difference for the experiments, the exact wavelength used is specified in each example. If not stated otherwise, 90 μl cell suspension was mixed with 10 μl endolysin solution, for the different species/endolysin combinations, in 384-well plates. OD(610-620 nm as indicated) was measured at the beginning of the reaction and at the end, either as two measurement points or as a continuous kinetic in a Tecan F200 Microplate reader. The reactions were incubated for 5 hours (or otherwise the time indicated) at 37° C. under anaerobic, micro-aerophilic or aerobic conditions as indicated. Anaerobic conditions intend that oxygen was fully depleted from the container in which the bacteria are incubated (Sigma-Aldrich anaerobic jar or sealable lunch box) with an anaerobic sachet, and the lack of oxygen was confirmed with an anaerobic indicator inside the container. Where micro-aerophilic conditions are indicated, the candle-in-a-jar method was used (tea candle lit in an appropriate sealable container, which reduces oxygen levels until the flame dies out). Then each well was diluted in 5 steps (10^−1 to 10^−5) using 96-U-well bottom plates, and 2 μl of each dilution of each reaction mix are plated on BD Chocolate agar plates or BD Schaedler/5% sheep blood agar plates for Gardnerella and Lactobacilli, respectively, for detecting and quantifying surviving CFU. Detection plates were incubated at 37° C. for 48 hours under anaerobic conditions.

Gardnerella cells = assay: Turbidity reduction (OD) assay of Gardnerella suspensions; assay type: cell-based; conditions: Gv_10 pH 6.0, Gv_17 pH 7.0, Gv_23 pH 7.4; aerobic, room temperature; vs buffer
Experimental: FIGS. 4A to 4C show three enzymatic activity assays where the enzymatic activity of natural Gardnerella prophage endolysins of the present disclosure is measured by detecting the change in turbidity of a suspension of Gardnerella cells. In FIG. 4A, the enzymatic activity of the endolysins is measured by detecting the change in turbidity of a suspension of the G. leopoldii strain Gv_10 at pH 6.0. In FIG. 4B, the enzymatic activity of the endolysins is measured by detecting the change in turbidity of a suspension of the G. piotii strain Gv_17 at pH 7.0. In FIG. 4C, the enzymatic activity of the endolysins is measured by detecting the change in turbidity of a suspension of the G. swidsinskii strain Gv_23 at pH 7.4. Treatment was conducted in a medium adjusted to the appropriate pH in a photometric cuvette against buffer. Then, the change in turbidity was assessed by measuring the optical density (OD) at 600 nm. As a result, the drop in turbidity was more pronounced for the endolysin treated groups than for the buffer, indicating enzymatic activity.
To test the activity of the purified endolysins, the turbidity change of Gardnerella suspensions (see Table 2) was measured at 610-620 nm using essentially the method described in Reference Example 2, where 95 ul of bacterial suspension in Hardy Broth at the indicated pH was mixed with 5 ul of endolysin solution in a photometric cuvette under aerobic conditions at room temperature. In turbidity reduction assays, a decrease in light scattering (i.e., turbidity reduction) of a suspension of live cells can be used in a spectrophotometer to assay the activity of peptidoglycan hydrolases. The reduction in optical density over time (minutes) can be used to calculate a rate of hydrolysis. Results are compared to a “no-enzyme added, buffer only” control preparation treated identically for the same period of time. In this manner, a specific activity of the enzyme preparation can be reported as ΔOD/time/ul lysin protein. […] As explained above, due to the low content of peptidoglycan in the cell wall, the fact that a peptidoglycan-degrading enzyme such as the identified endolysins could efficiently lyse the bacterial cell walls was an unexpected and surprising discovery.
as §1, with “Then each well was diluted in 5 steps (10^−1 to 10^−5) using 96-U-well bottom plates, and 2 μl of each dilution of each reaction mix are plated on BD Chocolate agar plates or BD Schaedler/5% sheep blood agar plates for Gardnerella and Lactobacilli, respectively, for detecting and quantifying surviving CFU. Detection plates were incubated at 37° C. for 48 hours under anaerobic conditions.” left out

B1: H12B12: natural Gardnerella prophage endolysin from strain 3549624 (protein)
chain: MSKKGIDVSVWQGDIDFNAVKASGVEFVIIRAGYGIGHKDKWFEENYRKAKTAGLDVGSYWYSYASSAGEVALEAQSCVNILSGKSFEYPVYFDLEEKSQLNRGRDFCDSLITSFCNKLEACGYYAGFYTSLSVANNLVSSHVRDRYALWIAQWNTHCSYQGSYGLWQYSSSGSVNGIAGRVDMDYAYVDYPSVIKNAGLNGYQNGGSYTAPQTSSIDEVAREVINGDWGNGIERKNRLTSAGYDYTSVQNKVNELLGVKAYRKSVDELAREVIRGTWGNGKTRKQRLTQAGYDYNAVQKRVNELL
modifications: EL12_strain_3549624_non-prophage
In the case of B1, the “log 10 of the ratio of surviving CFU for treated vs. untreated cells” value (shortened to “log 10 of the ratio of surviving CFU”) [1] is reported as −1.9 log 10 and the “enzymatic activity by drop in turbidity (capacity to lyse Gardnerella cell walls)” value (from here on “enzymatic activity by drop in turbidity”) (Gardnerella cells) is reported as “active”.

B2: H10B10: natural Gardnerella prophage endolysin from strain G30-4 (protein)
chain: MSKRGIDVSVWQGDIDFNAVKASGVEFVIIRAGYGIGHKDKWFEENYRKAKTVGLDVGAYWYSYASSAGEASEEAQSCVNILSGKSFEYPVYFDLEEKSQLNRGRDFCDSLITSFCNKLEACGYYAGFYTSLSVANNLVSSHVRDRYALWIAQWNTHCSYQGSYGLWQYSSSGSVNGIAGRVDMDYAYVDYPSVIKNAGLNGYKNGGSYTAPQISSIDEVAREVINGDWGNGNERKQRLTSAGYDYASVQNKVNELLGVKAYRKSVDELAREVIRGTWGNGSTRKQRLTQAGYDYNAVQKRVNELL
modifications: EL10_strain_G30-4
For B2, the “log 10 of the ratio of surviving CFU” value [1] was −5.5 log 10 and the “enzymatic activity by drop in turbidity” value (Gardnerella cells) was “active”.

B3: H11B11: natural Gardnerella prophage endolysin from strain JCP8017A (protein)
chain: MSKRGIDVSVWQGDIDFNAVKASGVEFVIIRAGYGIGHKDKWFEQNYRKAKTTGLDVGAYWYSYASSAGEAAEEAQSCVNILSGKSFEYPVYFDLEEKSQLNRGRDFCDSLITSFCNKLETYGYYAGFYTSLSVANNLVSSHVRDRYALWIAQWNTHCDYQGSYGLWQYSSSGSVDGIAGRVDMDYTYVDYPSVIKKAGLNGYKNGGSYTAPQTSSIDEVAREVINGDWGNGNERKNRLTSAGYDYTSVQNKVNELLGVKAYRKSVDELAREVIRGTWGNGSTRKQRLTQAGYDYDAVQKRVNELL
modifications: EL11_strain_JCP8017A
notes: natural Gardnerella prophage endolysin from strain JCP8017A
For B3, the “log 10 of the ratio of surviving CFU” value [1] was −3.5 log 10 and the “enzymatic activity by drop in turbidity” value (Gardnerella cells) was “active”.
